Test results: patent US20140235820A1, “METHODS AND COMPOSITIONS FOR MODULATING THE Wnt PATHWAY” (Genentech, Inc., priority 2010, published 2014)
Where a chain is given by its changes, count along the chain named. In names and notes the source's numbering stands. Each block holds one molecule with its values, some of them ahead of it.

Columns and labels:
LRP6 = experiment: Competition binding between Dkk1 and other Wnt pathway inhibitors (preloaded Dkk1); parameters: species or system human; conditions: Dkk1 100 nM preloaded, test ligand 100 nM
Method: FIG. 8. Competition binding between Dkk1 and other Wnt pathway inhibitors. The indicated LRP6 construct was preloaded onto biosensor tips. Dkk1 (100 nM) (or buffer control) and the test ligand (100 nM) were loaded sequentially onto the LRP6 tips. (A) Dkk2 competition with Dkk1. (B) Sclerostin competition with Dkk1. Percent binding in the presence of Dkk1 is shown relative to buffer control.
(§1) Binding kinetics were measured by biolayer interferometry using an Octet Red instrument (ForteBio) as previously described (11). Streptavidin (SA) biosensors were loaded with biotinylated hLRP6 in 50 mMTris, pH 8, 300 mM NaCl, 5% (v/v) glycerol, and 0.05% (w/v) Triton X-100. The loaded biosensors were washed in the same buffer before carrying out association and dissociation measurements for the indicated times. The Kd of each interaction was determined using steady state-analysis through the Octet Red software v6.3. Each reported value represents an average of three or more experiments at different concentrations, with a fitted experimental curve for which the square of the correlation coefficient (R^2) is above 0.96.
To assess whether Dkk1, Dkk2, and sclerostin might bind to the same site on LRP6 E1, Dkk2 or sclerostin binding was measured in the presence of preloaded Dkk1 (100 nM). […]

[1] = target: T1, human LRP6 construct E1E2 (amino acids A20-E631) (human, UniProt O75581 20-631, biotinylated for biolayer interferometry); experiment: BLI affinity
T1 construct: range 20-631; also called LRP6 E1E2
T1 sequence (looked up): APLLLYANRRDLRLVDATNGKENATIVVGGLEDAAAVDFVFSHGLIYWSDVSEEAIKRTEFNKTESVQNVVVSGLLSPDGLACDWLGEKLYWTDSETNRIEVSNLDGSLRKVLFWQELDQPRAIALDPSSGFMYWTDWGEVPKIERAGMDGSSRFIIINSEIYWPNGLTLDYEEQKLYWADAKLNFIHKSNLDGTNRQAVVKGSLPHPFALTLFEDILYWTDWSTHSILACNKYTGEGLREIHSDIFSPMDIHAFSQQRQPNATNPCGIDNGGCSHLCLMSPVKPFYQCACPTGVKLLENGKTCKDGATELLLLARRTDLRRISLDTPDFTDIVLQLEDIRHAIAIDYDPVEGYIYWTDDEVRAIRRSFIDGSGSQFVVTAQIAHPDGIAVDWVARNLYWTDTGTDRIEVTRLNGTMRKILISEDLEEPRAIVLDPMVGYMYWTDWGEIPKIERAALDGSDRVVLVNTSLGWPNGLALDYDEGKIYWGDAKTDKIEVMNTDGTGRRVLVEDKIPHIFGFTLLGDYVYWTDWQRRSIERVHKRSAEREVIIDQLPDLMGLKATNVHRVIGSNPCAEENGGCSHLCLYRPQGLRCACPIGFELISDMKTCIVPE
Method: as §1, with “(R²)” for “(R^2)”

[2] = target: T1, human LRP6 construct E1E2 (amino acids …); experiment: BLI (FIG. 9B)
Method: as §1, with “(R²)” for “(R^2)”

[3] = target: T2, human LRP6 construct E1E4 (amino acids A20-Q1253) (human, UniProt O75581 20-1253, biotinylated for biolayer interferometry); experiment: BLI (FIG. 9B)
T2 construct: range 20-1253; Expressed in Tni insect cells; tags not specified for this construct; also called LRP6 E1E4
T2 sequence (looked up): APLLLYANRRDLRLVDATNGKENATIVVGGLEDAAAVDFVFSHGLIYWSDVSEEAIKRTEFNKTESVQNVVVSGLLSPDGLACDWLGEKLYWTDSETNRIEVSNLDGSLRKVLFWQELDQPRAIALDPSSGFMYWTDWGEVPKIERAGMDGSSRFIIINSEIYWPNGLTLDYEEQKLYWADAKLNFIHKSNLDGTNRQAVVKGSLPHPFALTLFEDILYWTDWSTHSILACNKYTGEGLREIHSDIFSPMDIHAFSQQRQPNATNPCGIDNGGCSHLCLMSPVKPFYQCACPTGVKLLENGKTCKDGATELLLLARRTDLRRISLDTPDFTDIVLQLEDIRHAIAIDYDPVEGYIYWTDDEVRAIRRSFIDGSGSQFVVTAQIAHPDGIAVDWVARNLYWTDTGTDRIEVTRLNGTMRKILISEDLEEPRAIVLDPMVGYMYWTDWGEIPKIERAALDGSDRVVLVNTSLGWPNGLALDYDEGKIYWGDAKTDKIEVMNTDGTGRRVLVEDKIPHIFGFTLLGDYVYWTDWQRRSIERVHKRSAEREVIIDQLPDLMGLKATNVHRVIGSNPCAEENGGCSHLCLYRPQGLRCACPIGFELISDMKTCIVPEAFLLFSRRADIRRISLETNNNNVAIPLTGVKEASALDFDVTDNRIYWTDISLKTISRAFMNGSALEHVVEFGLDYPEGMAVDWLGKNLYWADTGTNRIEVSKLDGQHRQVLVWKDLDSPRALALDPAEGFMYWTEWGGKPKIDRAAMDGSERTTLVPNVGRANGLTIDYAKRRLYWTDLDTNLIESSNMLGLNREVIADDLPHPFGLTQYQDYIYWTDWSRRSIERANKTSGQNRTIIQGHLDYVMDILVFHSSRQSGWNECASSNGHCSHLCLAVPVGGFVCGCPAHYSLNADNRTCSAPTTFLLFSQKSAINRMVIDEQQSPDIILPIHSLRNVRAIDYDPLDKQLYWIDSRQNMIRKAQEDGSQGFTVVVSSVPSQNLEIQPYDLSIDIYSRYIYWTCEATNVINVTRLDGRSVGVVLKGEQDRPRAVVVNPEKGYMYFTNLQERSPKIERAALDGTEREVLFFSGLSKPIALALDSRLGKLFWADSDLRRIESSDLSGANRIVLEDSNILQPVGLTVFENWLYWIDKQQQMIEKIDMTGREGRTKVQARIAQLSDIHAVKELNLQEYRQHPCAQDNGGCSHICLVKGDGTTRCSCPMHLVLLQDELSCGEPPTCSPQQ
Method: as §1, with “(R²)” for “(R^2)”

- binding to LRP6 in the presence of preloaded Dkk1 (LRP6): very strongly inhibited
Molecule: sclerostin: Sclerostin protein, Wnt pathway inhibitor, expressed in insect cells (LPNAIGR)

- fold loss in affinity against wild-type Dkk1 [1]: > 364 fold
B1: Dkk1 Ile42Glu (ligand, human, UniProt O94907 32-266, looked up)
chain: TLNSVLNSNAEKNLPPPLGGAAGHPGSAVSAAPGILYPGGNKYQTIDNYQPYPCAEDEECGTDEYCASPTRGGDAGVQICLACRKRRKRCMRHAMCCPGNYCKNGICVSSDQNHFRGEIEETITESFGNDHSTLDGYSRRTTLSSKMYHTKGQEGSVCLRSSDCASGLCCARHFWSKICKPVLKEGQVCTKHRRKGSHGLEIFQRCYCGEGLSCRIQKDHHQASNSSRLHTCQRH
notes: also called Dkk1 I42E

- binding result [2]: binds
- binding result [3]: binds
B2: Dkk1 K211E (ligand, human, UniProt O94907 32-266, looked up)
chain: B1 chain with E11I, K180E
notes: also called Dkk1 Lys211Glu
